The target in series [1] is T1, Tyrosinase (Agaricus bisporus, UniProt O42713).
T1 sequence (O42713 whole entry): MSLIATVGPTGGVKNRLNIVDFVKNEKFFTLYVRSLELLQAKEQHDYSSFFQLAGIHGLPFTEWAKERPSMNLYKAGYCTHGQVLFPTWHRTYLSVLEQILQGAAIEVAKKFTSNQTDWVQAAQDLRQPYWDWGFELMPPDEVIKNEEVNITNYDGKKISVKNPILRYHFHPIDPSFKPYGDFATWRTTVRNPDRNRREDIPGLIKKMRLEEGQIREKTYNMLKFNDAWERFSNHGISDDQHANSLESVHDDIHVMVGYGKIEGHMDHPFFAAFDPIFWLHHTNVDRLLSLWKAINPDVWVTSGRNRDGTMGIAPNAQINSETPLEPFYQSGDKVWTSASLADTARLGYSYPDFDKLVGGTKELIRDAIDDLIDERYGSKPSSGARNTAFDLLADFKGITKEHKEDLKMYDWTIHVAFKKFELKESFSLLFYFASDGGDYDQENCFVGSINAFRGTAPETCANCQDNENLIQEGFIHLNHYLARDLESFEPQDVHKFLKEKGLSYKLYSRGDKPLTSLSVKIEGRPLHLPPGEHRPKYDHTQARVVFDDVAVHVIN

Series [2] deals with T1, Tyrosinase. The source holds these as a separate data set.
The target in series [3] is T1, Tyrosinase. The source holds these as a separate data set.
Series [4] deals with T2, Tyrosinase (Agaricus bisporus) (UniProt O42713).
T2 sequence (whole entry): T1 sequence (O42713 whole entry)
As to the kind of experiment: Reversible inhibition of mushroom tyrosinase using L-DOPA as substrate at 10.6 to 342 uM.

In series [5] the target is T2, Tyrosinase (Agaricus bisporus). The following applies: 8.75 to 140 uM.
In series [6] the test system is L929. As to the kind of experiment: Cytotoxicity against mouse L929 cells assessed as decrease in cell viability after 24 hrs by MTT assay. It counts as cell-based. The following applies: l929, 24 h. In general terms: Tetrazolium dyes change colour on reduction, which living cells bring about.
In series [7] the test system is HaCaT. The experiment in a line: Cytotoxicity against human HaCaT cells assessed as decrease in cell viability after 24 hrs by MTT assay. It counts as cell-based.
Substrate in series [8]: COc1cc(C=O)ccc1OC(=O)COC(=O)/C=C/c1ccc(Cl)cc1
The following applies: Agaricus bisporus; 33.3 uM.

Substrate in series [9]: COc1cc(C=O)ccc1OC(=O)COC(=O)c1ccc(O)cc1O
Particulars: Agaricus bisporus; 72.2 uM.

Compound in series [10]: COc1cc(C=O)ccc1OC(=O)CN1CCN(C)CC1
As to the kind of experiment: Non competitive inhibition of mushroom tyrosinase using L-DOPA as substrate assessed as enzyme Km at 42.75 uM preincubated for 10 mins followed by substrate addition measured after 20 mins by Lineweaver-Burk plot analysis (reference value: […] to […] mM). Particulars: Agaricus bisporus.

Compound in series [11]: COc1cc(C=O)ccc1OC(=O)CN1CCN(C)CC1
The experiment in a line: Non competitive inhibition of mushroom tyrosinase using L-DOPA as substrate assessed as enzyme Km at 342 uM preincubated for 10 mins followed by substrate addition measured after 20 mins by Lineweaver-Burk plot analysis (reference value: […] to […] mM). Particulars: Agaricus bisporus.

Substrate in series [12]: COc1cc(C=O)ccc1OC(=O)COC(=O)c1ccc(O)cc1O
The following applies: Agaricus bisporus; 144.5 uM.

Substrate in series [13]: COc1cc(C=O)ccc1OC(=O)COC(=O)/C=C/c1ccc(O)cc1
Particulars: Agaricus bisporus; 17.5 uM.

Compound in series [14]: COc1cc(C=O)ccc1OC(=O)CN1CCN(C)CC1
The experiment in a line: Non competitive inhibition of mushroom tyrosinase using L-DOPA as substrate assessed as enzyme Vmax at 85.5 uM preincubated for 10 mins followed by substrate addition measured after 20 mins by Lineweaver-Burk plot analysis (reference value: […] x 10^-4 to 2.66 x 10^-4 deltaA/s). Particulars: Agaricus bisporus.

Substrate in series [15]: COc1cc(C=O)ccc1OC(=O)COC(=O)c1ccc(O)cc1O
Particulars: Agaricus bisporus; 72.2 uM. The source holds these as a separate data set.

Substrate in series [16]: COc1cc(C=O)ccc1OC(=O)COC(=O)/C=C/c1ccc(Cl)cc1
The following applies: Agaricus bisporus; 16.6 uM.

Substrate in series [17]: COc1cc(C=O)ccc1OC(=O)COC(=O)/C=C/c1ccc(Cl)cc1
The following applies: Agaricus bisporus; 16.6 uM. The source holds these as a separate data set.

Substrate in series [18]: COc1cc(C=O)ccc1OC(=O)COC(=O)/C=C/c1ccc(O)cc1
The following applies: Agaricus bisporus; 8.75 uM.

Compound in series [19]: COc1cc(C=O)ccc1OC(=O)CN1CCN(C)CC1
The experiment in a line: Non competitive inhibition of mushroom tyrosinase using L-DOPA as substrate assessed as enzyme Vmax at 342 uM preincubated for 10 mins followed by substrate addition measured after 20 mins by Lineweaver-Burk plot analysis (reference value: […] x 10^-4 to 2.66 x 10^-4 deltaA/s). Particulars: Agaricus bisporus.

Substrate in series [20]: COc1cc(C=O)ccc1OC(=O)COC(=O)c1ccc(O)cc1O
The following applies: Agaricus bisporus; 289 uM.

Compound in series [21]: COc1cc(C=O)ccc1OC(=O)CN1CCN(C)CC1
As to the kind of experiment: Non competitive inhibition of mushroom tyrosinase using L-DOPA as substrate assessed as enzyme Vmax at 10.68 uM preincubated for 10 mins followed by substrate addition measured after 20 mins by Lineweaver-Burk plot analysis (reference value: […] x 10^-4 to 2.66 x 10^-4 deltaA/s). Particulars: Agaricus bisporus.

Compound in series [22]: COc1cc(C=O)ccc1OC(=O)CN1CCN(C)CC1
As to the kind of experiment: Non competitive inhibition of mushroom tyrosinase using L-DOPA as substrate assessed as enzyme Km at 85.5 uM preincubated for 10 mins followed by substrate addition measured after 20 mins by Lineweaver-Burk plot analysis (reference value: […] to […] mM). Particulars: Agaricus bisporus.

Substrate in series [23]: COc1cc(C=O)ccc1OC(=O)COC(=O)/C=C/c1ccc(O)cc1
The following applies: Agaricus bisporus; 8.75 uM. The source holds these as a separate data set.

Substrate in series [24]: COc1cc(C=O)ccc1OC(=O)COC(=O)/C=C/c1ccc(O)cc1
The following applies: Agaricus bisporus; 17.5 uM. The source holds these as a separate data set.

Substrate in series [25]: COc1cc(C=O)ccc1OC(=O)COC(=O)/C=C/c1ccc(Cl)cc1
Particulars: Agaricus bisporus; 8.3 uM.

Compound in series [26]: COc1cc(C=O)ccc1OC(=O)CN1CCN(C)CC1
As to the kind of experiment: Non competitive inhibition of mushroom tyrosinase using L-DOPA as substrate assessed as enzyme Vmax at 21.37 uM preincubated for 10 mins followed by substrate addition measured after 20 mins by Lineweaver-Burk plot analysis (reference value: […] x 10^-4 to 2.66 x 10^-4 deltaA/s). Particulars: Agaricus bisporus.

Compound in series [27]: COc1cc(C=O)ccc1OC(=O)CN1CCN(C)CC1
The experiment in a line: Non competitive inhibition of mushroom tyrosinase using L-DOPA as substrate assessed as enzyme Km at 10.68 uM preincubated for 10 mins followed by substrate addition measured after 20 mins by Lineweaver-Burk plot analysis (reference value: […] to […] mM). Particulars: Agaricus bisporus.

Compound in series [28]: COc1cc(C=O)ccc1OC(=O)CN1CCN(C)CC1
As to the kind of experiment: Non competitive inhibition of mushroom tyrosinase using L-DOPA as substrate assessed as enzyme Vmax at 42.75 uM preincubated for 10 mins followed by substrate addition measured after 20 mins by Lineweaver-Burk plot analysis (reference value: […] x 10^-4 to 2.66 x 10^-4 deltaA/s). Particulars: Agaricus bisporus.

Substrate in series [29]: COc1cc(C=O)ccc1OC(=O)COC(=O)/C=C/c1ccc(Cl)cc1
Particulars: Agaricus bisporus; 8.3 uM. The source holds these as a separate data set.

Compound in series [30]: COc1cc(C=O)ccc1OC(=O)CN1CCN(C)CC1
The experiment in a line: Non competitive inhibition of mushroom tyrosinase using L-DOPA as substrate assessed as enzyme Km at 21.37 uM preincubated for 10 mins followed by substrate addition measured after 20 mins by Lineweaver-Burk plot analysis (reference value: […] to […] mM). The following applies: Agaricus bisporus.

Substrate in series [31]: COc1cc(C=O)ccc1OC(=O)COC(=O)c1ccc(O)cc1O
The following applies: Agaricus bisporus; 289 uM. The source holds these as a separate data set.

Substrate in series [32]: COc1cc(C=O)ccc1OC(=O)COC(=O)c1ccc(O)cc1O
Particulars: Agaricus bisporus; 144.5 uM. The source holds these as a separate data set.

The values that follow come from ChEMBL document CHEMBL3600307, “Synthesis, kinetic mechanism and docking studies of vanillin derivatives as inhibitors of mushroom tyrosinase” (Bioorg Med Chem, 2015).

For orientation: IC50 means the midpoint of a concentration-inhibition curve. Higher therefore signals a need for much substance. As a reminder, the Ki is the equilibrium dissociation constant of an inhibitor or competing ligand from its target. A high value points to lower affinity. One may read the Km as the substrate concentration at which the rate is half of its maximum.

Calls of active or inactive are those of the source. The calls are words filed in the database; no cut-off is given here.

`COc1cc(C=O)ccc1OC(=O)COC(=O)c1ccc(O)c(O)c1` returned a 50% inhibitory concentration (IC50) in series [1] of 157 µM.

For `COc1cc(C=O)ccc1OC(=O)COC(=O)/C=C/c1ccc(Cl)cc1`, the Ki in series [2] was found to be 100 µM; in series [3] it was 41 µM. The 50% inhibitory concentration (IC50) in series [1] was determined as 30.9 µM.

With `COc1cc(C=O)ccc1OC(=O)COC(=O)c1ccc(O)cc1O`, the inhibition constant Ki in series [2] amounted to 205 µM; in series [3] it was 65 µM. In series [1], the 50% inhibitory concentration (IC50) is 42.6 µM.

In series [1], `COc1cc(C=O)ccc1OC(=O)CN1CCN(c2ccccc2)CC1` showed an IC50 of 101 µM.

On to `COc1cc(C=O)ccc1OC(=O)CN1CCN(C)CC1`, for which the inhibition result in series [4] is “Active”. Also, the IC50 in series [1] amounted to 21.6 µM. For the same molecule, the Ki in [3] worked out at 60 µM.

Take `COc1cc(C=O)ccc1OC(=O)COC(=O)c1ccc(O)cc1`: the IC50 in [1] is 201 µM.

`COc1cc(C=O)ccc1OC(=O)CCl` displayed a concentration for half-maximal inhibition (IC50) in series [1] of 78.9 µM.

For the molecule `COc1cc(C=O)ccc1OC(=O)COC(=O)c1cc(O)cc(O)c1`, the IC50 in series [1] was determined as 59.8 µM.

For the molecule `COc1cc(C=O)ccc1OC(=O)COC(=O)/C=C/c1ccc(O)cc1`, the inhibition constant Ki in [2] worked out at 53 µM; in series [3] it was 13 µM. In addition, in series [5], the inhibition result was “Active”. In addition, it took 16.1 µM to reach half-maximal inhibition in series [1] (IC50). In addition, the Activity entry in [6] and in series [7] was “Dose-dependent effect” throughout.

B1: Tyrosinase (Agaricus bisporus), O42713 (protein)
chain: T1 sequence (O42713 whole entry)
Turning to B1, the Vmax (10'-4deltaA/s) in series [8] was 1.85; in series [15], 2; in [16], 1.96; in [18], 2.22; in series [21], 1.66; in [24] it was 2. Besides, the Vmax (10'-4deltaA/s) was determined as 2.22 in series [25]; 1.42 in series [26]; 1.17 in [28]; 1.05 in series [31]; 1.53 in series [32]. The Michaelis constant (Km) in series [9] came out at 830 µM; in [10], 400 µM; in series [11] it was 400 µM; in [12], 1000 µM; in series [13], 1530 µM; in series [17], 1000 µM. In addition, the Michaelis-Menten constant (Km) in [20] was 1250 µM; in [22], 400 µM; in series [23], 1330 µM; in series [27], 400 µM; in series [29] it was 900 µM; in [30], 400 µM. Besides, the Vmax (10'-5deltaA/s) is 7.14 in [14] and 2.85 in [19].
